These are literature values, as cited in PMC5427221.

The target in the data set is C3b C3b (Homo sapiens) (UniProt P01024).
UniProt P01024, sequence (P01024 566-670): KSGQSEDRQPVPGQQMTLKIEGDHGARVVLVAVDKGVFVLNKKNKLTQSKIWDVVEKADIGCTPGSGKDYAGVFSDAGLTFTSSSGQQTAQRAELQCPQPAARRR

Consider Factor H FH[1-4] (from UniProt P08603), for which the Kd is 10 µM.
